According to US20140348785A1 (published 2014):

B1: G52cA (heavy chain) (antibody, V domains shown)
VH: EVQLVESGGGLVKPGGSLRLSCSASGFDFDNAWMTWVRQPPGKGLEWVGRITGPAEGWSVDYAAPVEGRFTISRLNSINFLYLEMNNLRMEDSGLYFCARTGKYYDFWSGYPPGEEYFQDWGRGTLVTVSS
VL: SYELTQETGVSVALGRTVTITCRGDSLRSHYASWYQKKPGQAPILLFYGKNNRPSGVPDRFSGSASGNRASLTISGAQAEDDAEYYCSSRDKSGSRLSVFGGGTKLTVL
B2: K97A (heavy chain) (antibody, V domains shown)
VH: EVQLVESGGGLVKPGGSLRLSCSASGFDFDNAWMTWVRQPPGKGLEWVGRITGPGEGWSVDYAAPVEGRFTISRLNSINFLYLEMNNLRMEDSGLYFCARTGAYYDFWSGYPPGEEYFQDWGRGTLVTVSS
VL: SYELTQETGVSVALGRTVTITCRGDSLRSHYASWYQKKPGQAPILLFYGKNNRPSGVPDRFSGSASGNRASLTISGAQAEDDAEYYCSSRDKSGSRLSVFGGGTKLTVL
B3: Y98A (heavy chain) (antibody, V domains shown)
VH: EVQLVESGGGLVKPGGSLRLSCSASGFDFDNAWMTWVRQPPGKGLEWVGRITGPGEGWSVDYAAPVEGRFTISRLNSINFLYLEMNNLRMEDSGLYFCARTGKAYDFWSGYPPGEEYFQDWGRGTLVTVSS
VL: SYELTQETGVSVALGRTVTITCRGDSLRSHYASWYQKKPGQAPILLFYGKNNRPSGVPDRFSGSASGNRASLTISGAQAEDDAEYYCSSRDKSGSRLSVFGGGTKLTVL
B4: Y100eA (heavy chain) (antibody, V domains shown)
VH: EVQLVESGGGLVKPGGSLRLSCSASGFDFDNAWMTWVRQPPGKGLEWVGRITGPGEGWSVDYAAPVEGRFTISRLNSINFLYLEMNNLRMEDSGLYFCARTGKYYDFWSGAPPGEEYFQDWGRGTLVTVSS
VL: SYELTQETGVSVALGRTVTITCRGDSLRSHYASWYQKKPGQAPILLFYGKNNRPSGVPDRFSGSASGNRASLTISGAQAEDDAEYYCSSRDKSGSRLSVFGGGTKLTVL
B5: R95bA (light chain) (antibody, V domains shown)
VH: EVQLVESGGGLVKPGGSLRLSCSASGFDFDNAWMTWVRQPPGKGLEWVGRITGPGEGWSVDYAAPVEGRFTISRLNSINFLYLEMNNLRMEDSGLYFCARTGKYYDFWSGYPPGEEYFQDWGRGTLVTVSS
VL: SYELTQETGVSVALGRTVTITCRGDSLRSHYASWYQKKPGQAPILLFYGKNNRPSGVPDRFSGSASGNRASLTISGAQAEDDAEYYCSSRDKSGSALSVFGGGTKLTVL
B6: P100fA (heavy chain) (antibody, V domains shown)
VH: EVQLVESGGGLVKPGGSLRLSCSASGFDFDNAWMTWVRQPPGKGLEWVGRITGPGEGWSVDYAAPVEGRFTISRLNSINFLYLEMNNLRMEDSGLYFCARTGKYYDFWSGYAPGEEYFQDWGRGTLVTVSS
VL: SYELTQETGVSVALGRTVTITCRGDSLRSHYASWYQKKPGQAPILLFYGKNNRPSGVPDRFSGSASGNRASLTISGAQAEDDAEYYCSSRDKSGSRLSVFGGGTKLTVL
B7: G100dA (heavy chain) (antibody, V domains shown)
VH: EVQLVESGGGLVKPGGSLRLSCSASGFDFDNAWMTWVRQPPGKGLEWVGRITGPGEGWSVDYAAPVEGRFTISRLNSINFLYLEMNNLRMEDSGLYFCARTGKYYDFWSAYPPGEEYFQDWGRGTLVTVSS
VL: SYELTQETGVSVALGRTVTITCRGDSLRSHYASWYQKKPGQAPILLFYGKNNRPSGVPDRFSGSASGNRASLTISGAQAEDDAEYYCSSRDKSGSRLSVFGGGTKLTVL
B8: P100gA (heavy chain) (antibody, V domains shown)
VH: EVQLVESGGGLVKPGGSLRLSCSASGFDFDNAWMTWVRQPPGKGLEWVGRITGPGEGWSVDYAAPVEGRFTISRLNSINFLYLEMNNLRMEDSGLYFCARTGKYYDFWSGYPAGEEYFQDWGRGTLVTVSS
VL: SYELTQETGVSVALGRTVTITCRGDSLRSHYASWYQKKPGQAPILLFYGKNNRPSGVPDRFSGSASGNRASLTISGAQAEDDAEYYCSSRDKSGSRLSVFGGGTKLTVL
B9: W100bA (heavy chain) (antibody, V domains shown)
VH: EVQLVESGGGLVKPGGSLRLSCSASGFDFDNAWMTWVRQPPGKGLEWVGRITGPGEGWSVDYAAPVEGRFTISRLNSINFLYLEMNNLRMEDSGLYFCARTGKYYDFASGYPPGEEYFQDWGRGTLVTVSS
VL: SYELTQETGVSVALGRTVTITCRGDSLRSHYASWYQKKPGQAPILLFYGKNNRPSGVPDRFSGSASGNRASLTISGAQAEDDAEYYCSSRDKSGSRLSVFGGGTKLTVL
B10: 10E8 IgG alanine variant E53A (heavy chain, Kabat) (antibody, V domains shown)
VH: EVQLVESGGGLVKPGGSLRLSCSASGFDFDNAWMTWVRQPPGKGLEWVGRITGPGAGWSVDYAAPVEGRFTISRLNSINFLYLEMNNLRMEDSGLYFCARTGKYYDFWSGYPPGEEYFQDWGRGTLVTVSS
VL: SYELTQETGVSVALGRTVTITCRGDSLRSHYASWYQKKPGQAPILLFYGKNNRPSGVPDRFSGSASGNRASLTISGAQAEDDAEYYCSSRDKSGSRLSVFGGGTKLTVL
B11: F100aA (heavy chain) (antibody, V domains shown)
VH: EVQLVESGGGLVKPGGSLRLSCSASGFDFDNAWMTWVRQPPGKGLEWVGRITGPGEGWSVDYAAPVEGRFTISRLNSINFLYLEMNNLRMEDSGLYFCARTGKYYDAWSGYPPGEEYFQDWGRGTLVTVSS
VL: SYELTQETGVSVALGRTVTITCRGDSLRSHYASWYQKKPGQAPILLFYGKNNRPSGVPDRFSGSASGNRASLTISGAQAEDDAEYYCSSRDKSGSRLSVFGGGTKLTVL
B12: D58A (heavy chain) (antibody, V domains shown)
VH: EVQLVESGGGLVKPGGSLRLSCSASGFDFDNAWMTWVRQPPGKGLEWVGRITGPGEGWSVAYAAPVEGRFTISRLNSINFLYLEMNNLRMEDSGLYFCARTGKYYDFWSGYPPGEEYFQDWGRGTLVTVSS
VL: SYELTQETGVSVALGRTVTITCRGDSLRSHYASWYQKKPGQAPILLFYGKNNRPSGVPDRFSGSASGNRASLTISGAQAEDDAEYYCSSRDKSGSRLSVFGGGTKLTVL
B13: E100iA (heavy chain) (antibody, V domains shown)
VH: EVQLVESGGGLVKPGGSLRLSCSASGFDFDNAWMTWVRQPPGKGLEWVGRITGPGEGWSVDYAAPVEGRFTISRLNSINFLYLEMNNLRMEDSGLYFCARTGKYYDFWSGYPPGAEYFQDWGRGTLVTVSS
VL: SYELTQETGVSVALGRTVTITCRGDSLRSHYASWYQKKPGQAPILLFYGKNNRPSGVPDRFSGSASGNRASLTISGAQAEDDAEYYCSSRDKSGSRLSVFGGGTKLTVL
B14: E100jA (heavy chain) (antibody, V domains shown)
VH: EVQLVESGGGLVKPGGSLRLSCSASGFDFDNAWMTWVRQPPGKGLEWVGRITGPGEGWSVDYAAPVEGRFTISRLNSINFLYLEMNNLRMEDSGLYFCARTGKYYDFWSGYPPGEAYFQDWGRGTLVTVSS
VL: SYELTQETGVSVALGRTVTITCRGDSLRSHYASWYQKKPGQAPILLFYGKNNRPSGVPDRFSGSASGNRASLTISGAQAEDDAEYYCSSRDKSGSRLSVFGGGTKLTVL
B15: D30A (heavy chain) (antibody, V domains shown)
VH: EVQLVESGGGLVKPGGSLRLSCSASGFDFANAWMTWVRQPPGKGLEWVGRITGPGEGWSVDYAAPVEGRFTISRLNSINFLYLEMNNLRMEDSGLYFCARTGKYYDFWSGYPPGEEYFQDWGRGTLVTVSS
VL: SYELTQETGVSVALGRTVTITCRGDSLRSHYASWYQKKPGQAPILLFYGKNNRPSGVPDRFSGSASGNRASLTISGAQAEDDAEYYCSSRDKSGSRLSVFGGGTKLTVL
B16: T52A (heavy chain) (antibody, V domains shown)
VH: EVQLVESGGGLVKPGGSLRLSCSASGFDFDNAWMTWVRQPPGKGLEWVGRIAGPGEGWSVDYAAPVEGRFTISRLNSINFLYLEMNNLRMEDSGLYFCARTGKYYDFWSGYPPGEEYFQDWGRGTLVTVSS
VL: SYELTQETGVSVALGRTVTITCRGDSLRSHYASWYQKKPGQAPILLFYGKNNRPSGVPDRFSGSASGNRASLTISGAQAEDDAEYYCSSRDKSGSRLSVFGGGTKLTVL
B17: N31A (heavy chain) (antibody, V domains shown)
VH: EVQLVESGGGLVKPGGSLRLSCSASGFDFDAAWMTWVRQPPGKGLEWVGRITGPGEGWSVDYAAPVEGRFTISRLNSINFLYLEMNNLRMEDSGLYFCARTGKYYDFWSGYPPGEEYFQDWGRGTLVTVSS
VL: SYELTQETGVSVALGRTVTITCRGDSLRSHYASWYQKKPGQAPILLFYGKNNRPSGVPDRFSGSASGNRASLTISGAQAEDDAEYYCSSRDKSGSRLSVFGGGTKLTVL
B18: D28A (heavy chain) (antibody, V domains shown)
VH: EVQLVESGGGLVKPGGSLRLSCSASGFAFDNAWMTWVRQPPGKGLEWVGRITGPGEGWSVDYAAPVEGRFTISRLNSINFLYLEMNNLRMEDSGLYFCARTGKYYDFWSGYPPGEEYFQDWGRGTLVTVSS
VL: SYELTQETGVSVALGRTVTITCRGDSLRSHYASWYQKKPGQAPILLFYGKNNRPSGVPDRFSGSASGNRASLTISGAQAEDDAEYYCSSRDKSGSRLSVFGGGTKLTVL
B19: S100cA (heavy chain) (antibody, V domains shown)
VH: EVQLVESGGGLVKPGGSLRLSCSASGFDFDNAWMTWVRQPPGKGLEWVGRITGPGEGWSVDYAAPVEGRFTISRLNSINFLYLEMNNLRMEDSGLYFCARTGKYYDFWAGYPPGEEYFQDWGRGTLVTVSS
VL: SYELTQETGVSVALGRTVTITCRGDSLRSHYASWYQKKPGQAPILLFYGKNNRPSGVPDRFSGSASGNRASLTISGAQAEDDAEYYCSSRDKSGSRLSVFGGGTKLTVL
B20: S56A (heavy chain) (antibody, V domains shown)
VH: EVQLVESGGGLVKPGGSLRLSCSASGFDFDNAWMTWVRQPPGKGLEWVGRITGPGEGWAVDYAAPVEGRFTISRLNSINFLYLEMNNLRMEDSGLYFCARTGKYYDFWSGYPPGEEYFQDWGRGTLVTVSS
VL: SYELTQETGVSVALGRTVTITCRGDSLRSHYASWYQKKPGQAPILLFYGKNNRPSGVPDRFSGSASGNRASLTISGAQAEDDAEYYCSSRDKSGSRLSVFGGGTKLTVL
B21: 10E8 monoclonal antibody (full-length IgG) (antibody, V domains shown)
VH: EVQLVESGGGLVKPGGSLRLSCSASGFDFDNAWMTWVRQPPGKGLEWVGRITGPGEGWSVDYAAPVEGRFTISRLNSINFLYLEMNNLRMEDSGLYFCARTGKYYDFWSGYPPGEEYFQDWGRGTLVTVSS
VL: SYELTQETGVSVALGRTVTITCRGDSLRSHYASWYQKKPGQAPILLFYGKNNRPSGVPDRFSGSASGNRASLTISGAQAEDDAEYYCSSRDKSGSRLSVFGGGTKLTVL

Target: soluble gp41 MPER peptide RRR-(656-683)-RRR
Assay: kinetic binding (ka/kd)

Point of comparison: B9, Kd 93.1 nM. Against it:
- B1 — 8.4-fold lower, 11.1 nM
- B2 — 3.8-fold lower, 24.8 nM
- B3 — 3.4-fold lower, 27 nM
- B4 — within 1.5-fold, 75.9 nM
- B5 — 3.3-fold lower, 28.6 nM
- B6 — 8.1-fold higher, 757 nM
- B7 — 3.4-fold higher, 315 nM
- B8 — 7.4-fold higher, 691 nM
- B10 — 4.2-fold higher, 395 nM
- B11 — 4.6-fold higher, 429 nM
- B12 — 3-fold lower, 30.6 nM
- B13 — 4.7-fold higher, 433 nM
- B14 — 3.9-fold higher, 361 nM
- B15 — 7.9-fold lower, 11.8 nM
- B16 — 8.5-fold lower, 10.9 nM
- B17 — 7.2-fold lower, 13 nM
- B18 — 6.5-fold lower, 14.3 nM
- B19 — 9.6-fold lower, 9.65 nM
- B20 — 8.5-fold lower, 10.9 nM

Target: soluble gp41 MPER peptide RRR-(656-683)-RRR
Assay: kinetic binding (ka/kd); mean of three runs

Binder B21 has a Kd of 6.08 nM.
